# Measured values reported in patent US20220098305A1 (Hoffmann-La Roche, published 2022).
# Changes are numbered by the printed parent chain. Numbers in names are those of the source. Like-named read-outs stand apart in the source and are kept apart here.
# B1: Molecule 9, bispecific 2+1 anti-ICOS (1167)/anti-FAP (4B9) huIgG1 P329GLALA kih (bispecific antibody)
# heavy 1: EVRLLESGGGLVQPGGSLRLSCAASGFTFNTYAVHWVRQAPGKGLEWVSGIGGSGVRTYYADSVKGRLTISRDNSKNTLYLQMNSLRAEDTAIYFCAKDIYVADFTGYAFDIWGQGTMVTVSSASTKGPSVFPLAPSSKSTSGGTAALGCLVKDYFPEPVTVSWNSGALTSGVHTFPAVLQSSGLYSLSSVVTVPSSSLGTQTYICNVNHKPSNTKVDKKVEPKSCDKTHTCPPCPAPEAAGGPSVFLFPPKPKDTLMISRTPEVTCVVVDVSHEDPEVKFNWYVDGVEVHNAKTKPREEQYNSTYRVVSVLTVLHQDWLNGKEYKCKVSNKALGAPIEKTISKAKGQPREPQVCTLPPSRDELTKNQVSLSCAVKGFYPSDIAVEWESNGQPENNYKTTPPVLDSDGSFFLVSKLTVDKSRWQQGNVFSCSVMHEALHNHYTQKSLSLSPGGGGGSGGGGSGGGGSGGGGSEIVLTQSPGTLSLSPGERATLSCRASQSVTSSYLAWYQQKPGQAPRLLINVGSRRATGIPDRFSGSGSGTDFTLTISRLEPEDFAVYYCQQGIMLPPTFGQGTKVEIK
# heavy 2: not shown
# light: DIQMTQSPSSVSASVGDRVTITCRASQGINNFLAWYQQKPGKAPKLLIYDASSLQSGVPSRFAGSGSGTDFTLTISSLQPEDFATYYCQQYNFYPLTFGGGTMVEIKRTVAAPSVFIFPPSDRKLKSGTASVVCLLNNFYPREAKVQWKVDNALQSGNSQESVTEQDSKDSTYSLSSTLTLSKADYEKHKVYACEVTHQGLSSPVTKSFNRGEC
# notes: also called FAP-ICOS (2+1)
# B2: Molecule 13, bispecific 2+1 anti-ICOS (1167)/anti-FAP (4B9) Crossfab-IgG P329G LALA inverted (bispecific antibody)
# heavy 1: EVRLLESGGGLVQPGGSLRLSCAASGFTFNTYAVHWVRQAPGKGLEWVSGIGGSGVRTYYADSVKGRLTISRDNSKNTLYLQMNSLRAEDTAIYFCAKDIYVADFTGYAFDIWGQGTMVTVSSASTKGPSVFPLAPSSKSTSGGTAALGCLVEDYFPEPVTVSWNSGALTSGVHTFPAVLQSSGLYSLSSVVTVPSSSLGTQTYICNVNHKPSNTKVDEKVEPKSCDKTHTCPPCPAPEAAGGPSVFLFPPKPKDTLMISRTPEVTCVVVDVSHEDPEVKFNWYVDGVEVHNAKTKPREEQYNSTYRVVSVLTVLHQDWLNGKEYKCKVSNKALGAPIEKTISKAKGQPREPQVCTLPPSRDELTKNQVSLSCAVKGFYPSDIAVEWESNGQPENNYKTTPPVLDSDGSFFLVSKLTVDKSRWQQGNVFSCSVMHEALHNHYTQKSLSLSP
# light 1: B1 light
# heavy 2: not shown
# light 2: EVQLLESGGGLVQPGGSLRLSCAASGFTFSSYAMSWVRQAPGKGLEWVSAIIGSGASTYYADSVKGRFTISRDNSKNTLYLQMNSLRAEDTAVYYCAKGWFGGFNYWGQGTLVTVSSASVAAPSVFIFPPSDEQLKSGTASVVCLLNNFYPREAKVQWKVDNALQSGNSQESVTEQDSKDSTYSLSSTLTLSKADYEKHKVYACEVTHQGLSSPVTKSFNRGEC
# B3: Molecule 41, CEA(A5H1EL1D)-ICOS(1167) 1+1 human IgG1 P329GLALA (bispecific antibody)
# heavy 1: EIVLTQSPATLSLSPGERATLSCRASSSVTYIHWYQQKPGQAPRSWIYATSNLASGIPARFSGSGSGTDFTLTISSLEPEDFAVYYCQHWSSKPPTFGQGTKLEIKSSASTKGPSVFPLAPSSKSTSGGTAALGCLVKDYFPEPVTVSWNSGALTSGVHTFPAVLQSSGLYSLSSVVTVPSSSLGTQTYICNVNHKPSNTKVDKKVEPKSCDKTHTCPPCPAPEAAGGPSVFLFPPKPKDTLMISRTPEVTCVVVDVSHEDPEVKFNWYVDGVEVHNAKTKPREEQYNSTYRVVSVLTVLHQDWLNGKEYKCKVSNKALGAPIEKTISKAKGQPREPQVCTLPPSRDELTKNQVSLSCAVKGFYPSDIAVEWESNGQPENNYKTTPPVLDSDGSFFLVSKLTVDKSRWQQGNVFSCSVMHEALHNHYTQKSLSLSP
# light 1: EVQLLESGGGLVQPGGSLRLSCAASGFTFTDYYMNWVRQAPGKGLEWLGFIGNKANAYTTEYSASVKGRFTISRDKSKNTLYLQMNSLRAEDTATYYCTRDRGLRFYFDYWGQGTTVTVSSASVAAPSVFIFPPSDEQLKSGTASVVCLLNNFYPREAKVQWKVDNALQSGNSQESVTEQDSKDSTYSLSSTLTLSKADYEKHKVYACEVTHQGLSSPVTKSFNRGEC
# heavy 2: not shown
# light 2: B1 light
# Columns and labels:
# cynomolgus ICOS [1] = molecular target: T1, cynomolgus ICOS (cynomolgus, UniProt Q9Y6W8 21-195 (human entry)); test: flow cytometry, activated cynomolgus PBMCs, CD8+ subset
# T1 chain: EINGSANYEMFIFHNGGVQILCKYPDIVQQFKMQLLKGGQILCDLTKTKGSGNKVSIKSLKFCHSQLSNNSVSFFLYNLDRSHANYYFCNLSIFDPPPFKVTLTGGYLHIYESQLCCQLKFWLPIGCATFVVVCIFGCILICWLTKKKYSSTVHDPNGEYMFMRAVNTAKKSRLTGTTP
# Description: (§1) Briefly, suspension cells were harvested, counted, checked for viability and re-suspended at 1 million cells per ml in FACS buffer (PBS with 0.1% BSA). […] The staining was fixed for 20 min at 4° C. in the dark, using 75 μl of 1% PFA in FACS buffer per well.
# (§2) Briefly, cynomolgus PBMCs were activated for 48 hours using Dynabeads™ Human T-Activator CD3/CD28 (Thermo Fischer #11131D) according to manufacturer instruction and stored in RPMI1640 medium containing 10% FCS and 1% Glutamax (Gibco 35050061) at 37° C., in a humidified incubator until subsequent binding experiment was performed, as described above.
# human ICOS [2] = molecular target: T2, human ICOS (human, UniProt Q9Y6W8 21-199); test: flow cytometry, CHO cells expressing human ICOS
# T2 construct: The cell that carries it is named under assay; also called huICOS; CD278
# T2 sequence: T1 chain with K54T, R81H, T129A, F136L, T152S, G176D, T177V, P179L
# Description: as §1
# (§3) Fluorescence was analyzed by FACS using a FACS Fortessa (Software FACS Diva). Binding curves and EC₅₀ values were obtained using GraphPadPrism 7.
# murine FAP [3] = molecular target: T3, murine FAP (murine, UniProt P97321 26-761, limits assumed); test: flow cytometry, cells carrying murine FAP not told
# T3 construct: also called mouse FAP
# cynomolgus ICOS [4] = molecular target: T1, cynomolgus ICOS; test: flow cytometry, activated cynomolgus PBMCs, CD4+ subset
# Description: as §1, §2
# human FAP [5] = molecular target: T4, human FAP (human, UniProt Q12884 1-760); test: flow cytometry, NIH/3T3-huFAP clone 19 cells
# T4 construct: also called hu FAP
# Description: as §1, §3
# murine FAP [6] = molecular target: T3, murine FAP; test: flow cytometry, % positive cells; cells bearing murine FAP not given
# murine ICOS = molecular target: T5, murine ICOS (murine, UniProt Q9WVS0 21-200); test: flow cytometry, pre-activated murine splenocytes (figure legend: recombinant CHO cells)
# T5 sequence: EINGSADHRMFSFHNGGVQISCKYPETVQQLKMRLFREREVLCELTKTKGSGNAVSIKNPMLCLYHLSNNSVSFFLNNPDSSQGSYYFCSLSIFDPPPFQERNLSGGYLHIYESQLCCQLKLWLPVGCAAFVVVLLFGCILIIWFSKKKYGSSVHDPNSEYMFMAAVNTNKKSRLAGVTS
# human ICOS [7] = molecular target: T2, human ICOS; test: flow cytometry on CHO cells stably expressing human ICOS, AF647-labelled anti-human Fc secondary antibody, MFI
# Description: as §1, §3
# cynomolgus ICOS [8] = molecular target: T1, cynomolgus ICOS; test: flow cytometry, activated cynomolgus PBMCs, CD8+ subset
# Description: as §1, §2
# cynomolgus ICOS [9] = molecular target: T1, cynomolgus ICOS; test: flow cytometry, activated cynomolgus PBMCs, CD4+ subset
# Description: as §1, §2
# human FAP [10] = molecular target: T4, human FAP; test: flow cytometry, NIH/3T3-huFAP clone 19 cells; remark: listed apart in the source
# human ICOS [11] = molecular target: T2, human ICOS; test: flow cytometry on human PBMCs pre-activated 48 h with PHA-L and IL-2, CD4+ subset, MFI
# Description: as §1
# Briefly, Peripheral blood mononuclear cells (PBMCs) were prepared by Histopaque (Sigma-Aldrich, Cat No. 10771-500ML Histopaque-1077) density centrifugation of enriched lymphocyte preparations of heparinized blood obtained from a Buffy Coat (“Blutspende Zürich”). The blood was diluted 1:2 with sterile DPBS and layered over Histopaque gradient (Sigma, #H8889). After centrifugation (450×g, 30 minutes, room temperature), the plasma above the PBMC-containing interphase was discarded and PBMCs transferred in a new falcon tube subsequently filled with 50 ml of PBS. The mixture was centrifuged (400×g, 10 minutes, room temperature), the supernatant discarded and the PBMC pellet washed twice with sterile PBS (centrifugation steps 350×g, 10 minutes). The resulting PBMC population was counted automatically (Cedex HiRes) and stored in RPMI1640 medium containing 10% FCS and 1% Glutamax (Gibco 35050061). […] After incubation the PBMCs were used for a subsequent binding experiment, as described above.
# human ICOS [12] = molecular target: T2, human ICOS; test: as above; remark: listed apart in the source
binder,measurement,setting,value
B1,EC50,cynomolgus ICOS [1],10.5 nM
same,EC50,human ICOS [2],2.72 nM
same,EC50,murine FAP [3],0.505 nM
same,EC50,cynomolgus ICOS [4],5.5 nM
same,EC50,human FAP [5],5.73 nM
same,EC50 (read off the curve),murine FAP [6],~0.5 nM
same,EC50,murine ICOS,7.21 nM
same,EC50 (read off the curve),human ICOS [7],~3 nM
same,EC50,cynomolgus ICOS [8],10.5 nM
same,EC50,cynomolgus ICOS [9],5.5 nM
B2,EC50,human FAP [10],4.45 nM
same,binding result,human ICOS [11],binds
B3,binding result,human ICOS [12],binds
